Kd data for four molecules are collected here from patent US20100248978, “METHOD FOR IDENTIFYING THE INTERACTION PARTNER OF AN ACTIVE AGENT” (Bayer Cropscience AG, published 2010).

Conditions in all cases: tags: His-tag; biotinylated in the SELEX runs
Data set [1] addresses T1, p-hydroxyphenylpyruvate dioxygenase (HPPD) (Arabidopsis thaliana, UniProt P93836 P93836:1-445).
T1 sequence: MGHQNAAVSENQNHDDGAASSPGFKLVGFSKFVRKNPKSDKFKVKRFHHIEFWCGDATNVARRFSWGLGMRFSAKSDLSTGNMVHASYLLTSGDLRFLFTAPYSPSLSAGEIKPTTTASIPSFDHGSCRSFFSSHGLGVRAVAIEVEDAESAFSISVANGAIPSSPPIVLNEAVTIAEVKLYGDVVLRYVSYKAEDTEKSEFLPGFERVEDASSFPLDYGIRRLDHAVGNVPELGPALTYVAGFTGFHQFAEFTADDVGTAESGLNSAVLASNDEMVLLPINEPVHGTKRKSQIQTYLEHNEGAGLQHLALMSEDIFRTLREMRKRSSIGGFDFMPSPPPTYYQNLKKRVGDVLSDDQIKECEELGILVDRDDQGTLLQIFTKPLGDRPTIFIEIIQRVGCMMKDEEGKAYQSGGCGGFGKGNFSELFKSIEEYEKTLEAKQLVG
As to the kind of experiment: filter; nitrocellulose filter retention. On the procedure:
(§1) The bound RNA molecules were eluted by heating to 95° C. and amplified by RT-PCR and in vitro transcription before starting the next selection cycle. A nitrocellulose filter retention assay was used to determine binding of selected, radioactively labelled RNA libraries to recombinant protein (Methods in Enzymology, Vol 267, Combinatorial Chemistry, (1996), Abelson J. N. and Simon M. I., eds. Academic Press, San Diego). RNA library (−80 nM) was incubated with increasing concentrations of target protein in binding buffer and subsequently filtered through nitrocellulose filters which bind to proteins but not to RNA molecules. RNA bound to the target protein is retained within the complex on the filter and was quantified by a phosphoimager. Values were calculated as the percentage of total radiolabeled RNA in the reaction.
(§2) To determine the binding properties of individual aptamers isolated as part of the mixture of aptamers binding to HPPD in the previous example, aptamers were cloned into a vector, and 24 clones were sequenced. […]

Data set [2] has as its target T1, p-hydroxyphenylpyruvate dioxygenase …. As to the kind of experiment: filter; 20 mM Hepes pH 7.4, 150 mM NaCl, 3 mM MgCl2.
From the text: as §1, with “The T7-RNA polymerase promoter is underlined. The double stranded DNA template was used to transcribe the initial RNA library. The procedures to produce an RNA library and to perform a SELEX experiment are well known to a person skilled in the art and described in, e.g., Methods in Enzymology, Vol 267, Combinatorial Chemistry (1996), Abelson J. N. and Simon M. I., eds. Academic Press, San Diego. Subsequently, the complexes between target and RNA were captured on streptavidin-coated beads and unbound RNA was removed by washing with binding buffer. The” for “The”, “reaction. […]” for “reaction.”

The target is the same in data set [3]. Kind of data set: FP; nitrocellulose filter retention (method is filter binding). The procedure: as §1, §2

Broadly, the Kd is the constant that tells how readily two partners part at equilibrium. A high value points to a looser complex.

B1: S116C-C18 (ssRNA)
RNA: GGGAGAGGAGGGAGAUAGAUAUCAAUAUCGCCACGUUACGAGUACCAAGCUUUAUUUCCGCAGCCCGAUAGAGUUUGUCCUCACGGUGGAUGG
With B1, binding in data set [1] was put at a Kd of 0.832 µM.

B2: S115A-C1 (ssRNA)
RNA: GGGAGAGGAGGGAGAUAGAUAUCAACAAUGACUAGCCGUGUAAGUGGUCUCGUACAUCCGAAAAAGACGACCCAGUUUGUCCUCACGGUGGAUGG
B2 returned a Kd in data set [2] of 0.128 µM.

B3: S116B-C4 (ssRNA)
RNA: GGGAGAGGAGGGAGAUAGAUAUCAAGUAACAAAUGAUACUUUCCAAGCAUAAUUCAUUCGCAGCCCGAAUUAAGUUUGUCCUCACGGUGGAUGG
Turning to B3, the equilibrium dissociation constant (Kd) in data set [1] turned out to be 0.74 µM.

B4: S116D-C8 (ssRNA)
RNA: GGGAGAGGAGGGAGAUAGAUAUCAAUAAAGUCGGUGACACCACGCAUCCAAAUACCGGUACGCGGAACUAAUAGUUUGUCCUCACGGUGGAUGG
With B4, in data set [3], binding was characterised by a dissociation constant (Kd) of 0.12 µM.
